Here are results for 5 molecules from patent publication US20070053894A1 (TRANSFERT PLUS, published 2007).

B1: Soluble human recombinant p97 (melanotransferrin) (other)
chain: GMEVRWCATSDPEQHKCGNMSEAFREAGIQPSLLCVRGTSADHCVQLIAAQEADAITLDGGAIYEAGKEHGLKPVVGEVYDQEVGTSYYAVAVVRRSSHVTIDTLKGVKSCHTGINRTVGWNVPVGYLVESGRLSVMGCDVLKAVSDYFGGSCVPGAGETSYSESLCRLCRGDSSGEGVCDKSPLERYYDYSGAFRCLAEGAGDVAFVKHSTVLENTDGKTLPSWGQALLSQDFELLCRDGSRADVTEWRQCHLARVPAHAVVVRADTDGGLIFRLLNEGQRLFSHEGSSFQMFSSEAYGQKDLLFKDSTSELVPIATQTYEAWLGHEYLHAMKGLLCDPNRLPPYLRWCVLSTPEIQKCGDMAVAFRRQRLKPEIQCVSAKSPQHCMERIQAEQVDAVTLSGEDIYTAGKKYGLVPAAGEHYAPEDSSNSYYVVAVVRRDSSHAFTLDELRGKRSCHAGFGSPAGWDVPVGALIQRGFIRPKDCDVLTAVSEFFNASCVPVNNPKNYPSSLCALCVGDEQGRNKCVGNSQERYYGYRGAFRCLVENAGDVAFVRHTTVFDNTNGHNSEPWAAELRSEDYELLCPNGARAEVSQFAACNLAQIPPHAVMVRPDTNIFTVYGLLDKAQDLFGDDHNKNGFKMFDSSNYHGQDLLFKDATVRAVPVGEKTTYRGWLGLDYVAALEGMSSQQCSG
notes: Provided by Biomarin Pharmaceutical Inc; also called soluble p97; MTf

For series [1], the target named is T1, plasminogen (UniProt P00747 20-810). Put plainly: cell-based or functional assay.
The target in series [2] is T1, plasminogen. Put plainly: SPR (BIAcore), plasminogen over immobilised p97, two state conformational change model (kd1). How it is done: (§1) Ringer solution or a 50 mM Tris/HCl buffer (pH 7.5) containing 150 mM NaCl and 50 mM CaCl₂ is used as the eluent buffer. Proteins are diluted in the corresponding eluent buffer and injected onto the sensor chip surface. Protein interactions are analyzed using both the Langmuir binding model, which is the simplest model for 1:1 interaction between analyte and immobilized ligand, and a two-state conformational change model which describes a 1:1 binding of analyte to immobilized ligand followed by a conformational change.
(§2) The SPR response for these proteins is plotted in RU as a function of time.
(§3) About 8-10 ng/mm² of PAI-1 was also immobilized onto another well of a sensor chip surface using NHS/EDC coupling conditions.
In general terms: In SPR one partner is held on a chip, and binding of the other changes the refractive index at the surface.

In series [3] the target is T2, pro-urokinase plasminogen activator (pro-uPA) (UniProt P00749 21-431, limits assumed).
T2 construct: Bought reagent; also called sc-uPA; scu-PA
Put plainly: SPR (BIAcore), pro-uPA over immobilised p97, two state conformational change model (apparent KD). The method, then: (§4) Protein interactions are analyzed using both the Langmuir binding model, which is the simplest model for 1:1 interaction between analyte and immobilized ligand, and a two-state conformational change model which describes a 1:1 binding of analyte to immobilized ligand followed by a conformational change.
as §2, §3

The target of series [4] is T2, pro-urokinase plasminogen activator …. As to the kind of experiment: SPR (BIAcore), pro-uPA over immobilised p97, two state conformational change model (ka1). The method, then: as §4, §2, §3
Series [5] concerns the molecule itself. Put plainly: SPR (BIAcore), soluble p97 injected over p97 immobilised on a CM5 chip. How it is done:
as §1
(§5) Transcytosis experiments are performed at 37° C. for 2 hrs. […] At the end of the experiment, radiolabelled proteins are measured in the lower chamber of each well by TCA precipitation.

For series [6], the target named is T1, plasminogen. Put plainly: SPR (BIAcore), p97 over immobilised plasminogen, two state conformation change model. How it is done: as §1
Series [7] deals with T2, pro-urokinase plasminogen activator …. Put plainly: SPR (BIAcore), pro-uPA over immobilised p97, two state conformational change model (kd1). The method, then:
as §4, §2, §3

Series [8] has as its target T1, plasminogen. Put plainly: SPR (BIAcore), various concentrations of p97 injected over immobilised plasminogen; plasminogen immobilized, p97 injected. The method, then:
as §1

The target of the next series is plasmin (UniProt P00747 97-810, limits assumed). As to the kind of experiment: SPR (BIAcore), plasmin injected over immobilised p97. The method, then: as §1, §2, §3
The target of series [9] is T2, pro-urokinase plasminogen activator …. Put plainly: SPR (BIAcore), two state conformational change model; text value differs from Table 3. How it is done:
as §4, §2, §3

The target in series [10] is T1, plasminogen. Put plainly: SPR (BIAcore), plasminogen over immobilised p97, two state conformational change model (ka1). The method, then: as §1, §2, §3
In series [11] the target is T1, plasminogen. As to the kind of experiment: SPR (BIAcore), plasminogen over immobilised p97, two state conformational change model (apparent KD). The method, then:
as §1, §2, §3

Series [12] has as its target B1. Put plainly: not described (Discussion; presumably SPR).
The target in series [13] is B1. As to the kind of experiment: SPR (BIAcore), RAP injected over immobilised p97. How it is done: as §1, §5
The target in series [14] is B1. As to the kind of experiment: SPR (BIAcore), angiostatin injected over immobilised p97. The method, then:
as §1, §2, §3

Series [15] addresses B1. As to the kind of experiment: SPR (BIAcore), tPA injected over immobilised p97. How it is done: as §1, §2, §3

T1 sequence (P00747 20-810 limits assumed): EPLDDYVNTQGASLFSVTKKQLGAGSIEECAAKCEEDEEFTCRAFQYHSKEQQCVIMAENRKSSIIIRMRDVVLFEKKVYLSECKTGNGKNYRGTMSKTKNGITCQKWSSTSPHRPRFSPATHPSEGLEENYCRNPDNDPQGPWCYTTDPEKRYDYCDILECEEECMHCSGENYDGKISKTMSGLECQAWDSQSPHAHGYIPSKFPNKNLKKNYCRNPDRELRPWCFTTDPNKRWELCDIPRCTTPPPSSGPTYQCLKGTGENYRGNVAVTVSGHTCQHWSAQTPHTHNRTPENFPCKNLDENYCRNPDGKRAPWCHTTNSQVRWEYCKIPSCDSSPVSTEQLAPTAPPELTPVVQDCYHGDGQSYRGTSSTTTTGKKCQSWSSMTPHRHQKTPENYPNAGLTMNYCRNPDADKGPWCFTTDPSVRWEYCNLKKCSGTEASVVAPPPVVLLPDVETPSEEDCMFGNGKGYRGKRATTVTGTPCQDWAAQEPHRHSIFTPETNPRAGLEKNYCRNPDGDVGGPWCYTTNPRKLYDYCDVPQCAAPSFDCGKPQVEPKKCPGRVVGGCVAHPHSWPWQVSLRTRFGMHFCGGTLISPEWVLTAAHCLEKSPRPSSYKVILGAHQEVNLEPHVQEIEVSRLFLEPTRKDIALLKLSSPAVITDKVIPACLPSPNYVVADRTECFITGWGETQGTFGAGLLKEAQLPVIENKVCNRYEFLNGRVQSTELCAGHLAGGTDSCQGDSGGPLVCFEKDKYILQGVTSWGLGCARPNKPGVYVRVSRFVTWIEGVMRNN
Sequence of plasmin (P00747 97-810 limits assumed): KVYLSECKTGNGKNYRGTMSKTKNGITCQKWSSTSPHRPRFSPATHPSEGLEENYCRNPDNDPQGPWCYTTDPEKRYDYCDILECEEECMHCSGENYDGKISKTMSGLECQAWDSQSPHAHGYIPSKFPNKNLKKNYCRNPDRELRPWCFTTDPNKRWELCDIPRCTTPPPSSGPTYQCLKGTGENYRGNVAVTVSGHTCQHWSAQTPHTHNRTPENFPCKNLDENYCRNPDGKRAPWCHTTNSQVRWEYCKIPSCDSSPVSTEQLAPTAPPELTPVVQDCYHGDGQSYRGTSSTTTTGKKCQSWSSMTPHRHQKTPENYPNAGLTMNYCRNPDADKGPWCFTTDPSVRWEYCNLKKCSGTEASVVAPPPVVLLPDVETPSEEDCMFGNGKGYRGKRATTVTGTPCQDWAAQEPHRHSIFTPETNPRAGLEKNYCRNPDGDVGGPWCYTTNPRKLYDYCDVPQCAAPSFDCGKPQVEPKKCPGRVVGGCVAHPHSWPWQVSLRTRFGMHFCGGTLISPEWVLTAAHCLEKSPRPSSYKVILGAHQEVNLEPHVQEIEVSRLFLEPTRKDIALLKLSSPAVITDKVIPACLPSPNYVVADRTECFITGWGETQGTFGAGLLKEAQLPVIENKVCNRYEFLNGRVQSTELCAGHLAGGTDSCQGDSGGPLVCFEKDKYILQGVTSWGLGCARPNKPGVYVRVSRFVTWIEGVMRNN

For B1, the “increase of plasminogen activation by tPA after 180 minutes (VLK-peptide hydrolysis)” value with plasminogen [1] came to 6 fold. The “increase of plasminogen activation by tPA in the presence of p97 (VLK peptide hydrolysis)” value in the series with plasminogen [1] was found to be 4 fold. Further, the koff is 0.043 s⁻¹ with plasminogen [2] and 0.0017 s⁻¹ in series [7]. Besides, the Kd in series [3] was found to be 0.065 µM; with plasminogen [6], 0.26 µM; with plasminogen [8], 0.275 µM; with plasminogen [11] it was 0.35 µM. The values for the kon (in series [4]; in series [9]; in the series with plasminogen [10]) were 6620 M⁻¹ s⁻¹, 6600 M⁻¹ s⁻¹ and 21000 M⁻¹ s⁻¹, respectively. Moreover, the binding result is given as “no binding (tested: 0.05 µg/µl (5 µg/100 µl))” in series [5] and “no binding (tested: 0.05 µg/µl)” in the series with plasmin.

B2: ovalbumin (other, UniProt P01012 2-386, looked up)
chain: GSIGAASMEFCFDVFKELKVHHANENIFYCPIAIMSALAMVYLGAKDSTRTQINKVVRFDKLPGFGDSIEAQCGTSVNVHSSLRDILNQITKPNDVYSFSLASRLYAEERYPILPEYLQCVKELYRGGLEPINFQTAADQARELINSWVESQTNGIIRNVLQPSSVDSQTAMVLVNAIVFKGLWEKAFKDEDTQAMPFRVTEQESKPVQMMYQIGLFRVASMASEKMKILELPFASGTMSMLVLLPDEVSGLEQLESIINFEKLTEWTSSNVMEERKIKVYLPRMKMEEKYNLTSVLMAMGITDVFSSSANLSGISSAESLKISQAVHAAHAEINEAGREVVGSAEAGVDAASVSEEFRADHPFLFCIKHIATNAVLFFGRCVSP
Turning to B2, the binding result in series [12] was “no binding”.

B3: receptor-associated protein (RAP) (other, UniProt P30533 35-357, looked up)
chain: YSREKNQPKPSPKRESGEEFRMEKLNQLWEKAQRLHLPPVRLAELHADLKIQERDELAWKKLKLDGLDEDGEKEARLIRNLNVILAKYGLDGKKDARQVTSNSLSGTQEDGLDDPRLEKLWHKAKTSGKFSGEELDKLWREFLHHKEKVHEYNVLLETLSRTEEIHENVISPSDLSDIKGSVLHSRHTELKEKLRSINQGLDRLRRVSHQGYSTEAEFEEPRVIDLWDLAQSANLTDKELEAFREELKHFEAKIEKHNHYQKQLEIAHEKLRHAESVGDGERVSRSREKHALLEGRTKELGYTVKKHLQDLSGRISRARHNEL
With B3, the binding result in series [13] is recorded as “no binding (tested: 0.05 µg/µl)”.

B4: angiostatin (other, UniProt P00747 98-459, looked up)
chain: VYLSECKTGNGKNYRGTMSKTKNGITCQKWSSTSPHRPRFSPATHPSEGLEENYCRNPDNDPQGPWCYTTDPEKRYDYCDILECEEECMHCSGENYDGKISKTMSGLECQAWDSQSPHAHGYIPSKFPNKNLKKNYCRNPDRELRPWCFTTDPNKRWELCDIPRCTTPPPSSGPTYQCLKGTGENYRGNVAVTVSGHTCQHWSAQTPHTHNRTPENFPCKNLDENYCRNPDGKRAPWCHTTNSQVRWEYCKIPSCDSSPVSTEQLAPTAPPELTPVVQDCYHGDGQSYRGTSSTTTTGKKCQSWSSMTPHRHQKTPENYPNAGLTMNYCRNPDADKGPWCFTTDPSVRWEYCNLKKCSGTEA
notes: domain: angiostatin (plasminogen fragment)
Turning to B4, the binding result in series [14] is “no binding (tested: 0.05 µg/µl)”.

B5: tissue plasminogen activator (tPA) (enzyme, UniProt P00750 36-562, looked up)
chain: SYQVICRDEKTQMIYQQHQSWLRPVLRSNRVEYCWCNSGRAQCHSVPVKSCSEPRCFNGGTCQQALYFSDFVCQCPEGFAGKCCEIDTRATCYEDQGISYRGTWSTAESGAECTNWNSSALAQKPYSGRRPDAIRLGLGNHNYCRNPDRDSKPWCYVFKAGKYSSEFCSTPACSEGNSDCYFGNGSAYRGTHSLTESGASCLPWNSMILIGKVYTAQNPSAQALGLGKHNYCRNPDGDAKPWCHVLKNRRLTWEYCDVPSCSTCGLRQYSQPQFRIKGGLFADIASHPWQAAIFAKHRRSPGERFLCGGILISSCWILSAAHCFQERFPPHHLTVILGRTYRVVPGEEEQKFEVEKYIVHKEFDDDTYDNDIALLQLKSDSSRCAQESSVVRTVCLPPADLQLPDWTECELSGYGKHEALSPFYSERLKEAHVRLYPSSRCTSQHLLNRTVTDNMLCAGDTRSGGPQANLHDACQGDSGGPLVCLNDGRMTLVGIISWGLGCGQKDVPGVYTKVTNYLDWIRDNMRP
notes: Bought reagent
Regarding B5, the binding result in series [15] is reported as “no binding (tested: 0.05 µg/µl)”.

As a reminder, the koff is a measure of how fast the partners let go of each other. A high value points to fast dissociation. By kon is commonly meant the rate constant with which the complex forms. Lower therefore signals slow association.
